Tests used:
[1] = target: mouse METAP1(1-59) (mouse) (UniProt Q8BP48); assay: other fluorescence titration
[2] = target: mouse METAP1(1-79) (mouse) (UniProt Q8BP48); assay: other fluorescence titration

- Kd [1]: 100 nM
- stoichiometry N [1]: 1
- Kd [2]: 100 nM
- stoichiometry N [2]: 1
Substance: mouse ZNG1 N-terminal peptide, synthetic

Source: paper PMC9189065
